Results: patent US20080039411A1, “Use Of Resistin Antisense Oligonucleotides And/Or Sirna Molecules In The Treatment Of Rheumatoid Arthritis” (priority 2004, published 2008)

Key:
[1] = system: human PBMC (resistin mRNA); test: Stimulation of human PBMC with pro-inflammatory cytokines: resistin mRNA; assay type: cell-based; details: human PBMC (n=5), physiological concentrations (TNF-alpha 1-5 ng/ml)
Experimental: (§1) Peripheral blood mononuclear cells (PBMC) were prepared from heparinized blood of healthy individuals by separation on a Lymphoprep density gradient, washed, and resuspended in complete medium (Iscoves medium containing 1% L-glutamine, 5×10^−5 M ®-mercapto ethanol, […] of gentamycin sulphate, and 10% heat inactivated fetal calf serum). Culturing of PBMC was carried out in 24-well plates in a humidified atmosphere of 5% CO2 at 37° C. Culturing of monocytic cell line THP-1 (American Type Culture Collection, Manassas, Va.) was performed in 10-ml culture flasks (Nunclon) in […] medium supplemented with 10% FCS, 1% sodium pyruvate, gentamycin, and 2.5% Hepes in a humidified atmosphere of 5% CO2 at 37° C. For the experiments, 4-days old cells were harvested, washed, and adjusted to 1×10^6 cells/ml.
(§2) Total RNA from harvested cells was extracted by an RNAeasy kit (Qiagen, Inc.) and concentration was assessed spectrophotometrically at 260 nm. The gene expression was measured with TaqMan real time PCR (Applied Biosystems, Foster City, Calif.) as previously described (N&S, 2001). In short, total RNA extracts were treated with deoxyribonuclease I, and reverse transcribed with random nonamer primers and superscript II RnaseH-reverse transcriptase (life Technologies). After first strand cDNA synthesis, relative transcript cDNA levels were measured using oligonucleotide PCR primers and fluorogenic Taqman probes for test genes and 18S rRNA. […] For generation of the standard curve, serially diluted cDNA prepared from PBMC were used. Each TaqMan set span one or two exon joints in order to increase further both specificity of only RNA detection and efficiency of PCR reaction. Sequences were manually designed with using the PrimerExpress program (Applied Biosystems) to check them for secondary structure, melting temperature, GC content, primer to primer and/or to probe dimmers. The GenBank database was useful to avoid all known sites of oligonucleotide polymorphism and unspecific annealing of any nucleotide.

THP-1 cells = test: Stimulation of monocytic cell line THP-1; assay type: cell-based, human
Experimental: as §1

synovial cells = test: In vitro stimulation of synovial cells from patients with acute synovitis; assay type: cell-based, human; details: synovial cells from patients with acute synovitis (n=4)
Experimental: as §2

NF-kappaB = test: Electrophoretic mobility shift assay of nuclear extracts of resistin-stimulated PBMC; assay type: cell-based, human; details: PBMC stimulated with resistin
Experimental: Human PBMC (10^7) were stimulated with recombinant resistin (10-500 ng/ml) as described above. After 2 h, the stimulation was stopped with ice-cold PBS, cells were washed and resuspended in 2 ml hypotonic buffer (pH 7.9, containing 10 mM HEPES, 0.1 mM EDTA, 0.1 mM EGTA, 10 mM KCl, 0.75 mM spermidin, 0.15 mM spermin, […] and proteinase inhibitors, Complete MiniTab, Boehringer) and homogenised. Following centrifugation at 14000 g at 4° C. for 10 min, the supernatant was removed and the pellet was resuspended in the ice-cold extraction buffer (pH 7.9, 20 mM HEPES, 0.42 M NaCl, […], 1 mM EGTA, 25% glycerol, […] and proteinase inhibitors). Extraction proceeded at 4° C. under continuous rotation for 1 h. The supernatants containing nuclear extracts were collected after centrifugation 14000 g for 1 h at 4° C. Protein concentration in the extracts was determined using Bradford reagent (Sigma). Nuclear extracts were aliquoted and stored at −70° C. until use.
EMSA was performed as described elsewhere (Bergquist et al., 2000) with minor modifications. The sequences for oligonucleotides used for the assay were as follows:
Oligonucleotides were annealed at 56° C. The double stranded product was purified by elution from the electrophoretic gel. […]

human PBMC = test: Resistin stimulation of PBMC: cytokine gene expression and cytokine release; assay type: cell-based
Experimental: as §1
Freshly isolated PBMC were re-suspended to 2×10^6/ml and stimulated with recombinant human resistin (endotoxin concentration less than 0.1 ng/μg, PeproTech) at final concentration 10-1000 ng/ml. LPS (10 ng/ml) was used as a positive control in all the experiments. […] Cell stimulation period differed depending on the read-out system used. […]
Total RNA from harvested cells was extracted by an RNAeasy kit (Qiagen, Inc.) and concentration was assessed spectrophotometrically at 260 nm. The gene expression was measured with TaqMan real time PCR (Applied Biosystems, Foster City, Calif.) as previously described (N&S, 2001). […] After first strand cDNA synthesis, relative transcript cDNA levels were measured using oligonucleotide PCR primers and fluorogenic Taqman probes for test genes and 18S rRNA. […]
The level of IL-6 in synovial fluid and supernatants was determined by a bioassay. The effect of test samples on proliferation of the IL-6 dependent cell line B13.29 [21] was assessed following 72 h of culturing. The results were analyzed by incorporation of [3H]-thymidine (Radiochemical Centre, Amersham, Bucks, U.K.) during the last 4 h of incubation at 37° C. […]
Levels of TNF-α and IL-1B were assessed using an ELISA kit (R&D Systems) following manufacture's recommendations. […]

[2] = system: knee joint of healthy mice; test: Intra-articular injection of recombinant mouse resistin into knee joint, histology; assay type: in vivo
Experimental: Female NMRI mice, 6-8 weeks old, weighing 25-30 g, were purchased from ALAB (Stockholm, Sweden). The mice were bred and housed in the animal facility of the Department of Rheumatology, University of Göteborg, under standard conditions of temperature and light, and fed laboratory chow and water ad libidum. Mouse recombinant resistin (PeproTech EC, London, U.K.) was injected intra-particularly into the right knee joint (0.1-100 ng/knee) in the total volume of 20 μl. Control mice obtained equivalent volume of mouse albumin (Sigma, St. Louise, Mo.) in PBS buffer. Three days after the joint injection, the mice were sacrificed by cervical dislocation and the right knee was removed for histological examination.
Histological examination of joints was done after routine fixation, decalcification, and paraffin embedding of the tissue. Tissue sections of the knee joints were cut and stained with hematoxylin and eosin. All the slides were coded and evaluated blindly by two investigators with respect to synovial hypertrophy, the inflammatory cell infiltration of synovia, pannus formation, and cartilage and subchondral bone destruction. Synovial hypertrophy was defined as synovial membrane thickness of more than two cell layers. Intensity of in-flammatory cell infiltration of synovia was graded arbitrarily from 0 to 3.

For “IL-1b: pro-inflammatory cytokine used to stimulate PBMC”, the “induction of resistin mRNA” value [1] was “less efficient”.

For “IL-6: pro-inflammatory cytokine used to stimulate PBMC”, the “induction of resistin mRNA” value [1] was “less efficient”.

TNF-alpha was tested, and the “induction of resistin mRNA” value [1] was “could induce the expression of resistin” and the “expression of resistin gene” value (THP-1 cells; THP-1 cells) was “neither stimulation with TNF-a nor with LPS gave rise to the expression of resistin gene”.

B1: recombinant human resistin: recombinant human resistin (endotoxin concentration less than 0.1 ng/μg, PeproTech) (protein, UniProt Q9HD89 19-108, looked up)
Resistin: KTLCSMEEAINERIQEVAGSLIFRAISSIGLECQSVTSRGDLATCPRGFAVTGCTCGSACGSWDVRAETTCHCQCAGMDWTGARCCRVQP
With B1 the “expression of TNF-alpha and IL-6 genes” value (synovial cells) was “increased expression of TNF-alpha and IL-6 genes”, the cytokine production (THP-1 cells; THP-1 stimulated with resistin) was “cytokine production in the pattern similar to PBMC” and the “NF-kappaB translocation (EMSA)” value (NF-kappaB) was “induced translocation of NF-kappaB from cytoplasma to nucleus”. The “IL-6 activity and levels of TNF-alpha and IL-1b in supernatants” value (human PBMC; PBMC, 48 hours of stimulation) was “dose dependent increase”, the “cytokine gene expression (TNF-alpha, IL-6, IL-1b) in cell lysates” value (human PBMC; PBMC, resistin 10-1000 ng/ml) was “induction of genes for pro-inflammatory cytokines” and the “resistin gene expression in PBMC” value (human PBMC; resistin stimulation, detectable following 3 h up to 24 h) was “self-stimulation of resistin gene”.

B2: recombinant mouse resistin: Mouse recombinant resistin (PeproTech EC, London, U.K.) (protein, UniProt Q99P87 21-114, looked up)
Resistin: SSMPLCPIDEAIDKKIKQDFNSLFPNAIKNIGLNCWTVSSRGKLASCPEGTAVLSCSCGSACGSWDIREEKVCHCQCARIDWTAARCCKLQVAS
In the case of B2, the “histological analysis of injected joints” value ([2]; 0.1-100 ng/knee intra-articularly, three days after injection) is reported as “signs of inflammation in the joint” and the “leukocyte infiltration and hyperplasia of synovia” value ([2]; single intra-articular injection, 1 ng/knee (50 ng/ml)) is reported as “sufficient to induce leukocyte infiltration and hyperplasia of synovia”.
